Changes are numbered by the printed parent chain.
B1: antibody 363 (antibody, V domains shown)
VH: EVQLLESGGGLVQPGGSLRLSCAASGFTFSTYAMSWVRQAPGKGLEWVSAISGSGGSTYYADSVKGRFTISRDNSKNTLYLQMNSLRAEDTAVYYCASGYSPDYWGQGTLVTVSS
VL: not shown
B2: antibody 331 (antibody, V domains shown)
V domain 1: QITLKESGPTLVKPTETLTLTCSFSGFSLTKTGEAAGWIRQAPGRALEWVTVIFWDDDKRYSPSLQNRISVTKDTSKNQVVLRMTNVARFDTGTYFCWAMGGPGKEYFGQGTLVAVSS
V domain 2: QSVLTQPPSVSGAPGQRVTISCTGTSSSIGPYSDVHWYQHVSGKAPRLLIFGNSNRPSGVPDRFSGSKSGTSASLVIAGLQAEDEADYYCQSYDSSLGEIYVFGTGTTVTVL
B3: antibody 339 (antibody, V domains shown)
V domain 1: B2 V domain 1 with K31R, N67S, I69L, S70T, R83T, G93A, L113Q
V domain 2: B2 V domain 2
B4: antibody 329 (antibody, V domains shown)
VH: EVQLVESGGGLVQPGGSLRLSCAASGFTFSSYWMHWVRQAPGKGLVWVSRINSDGSSTSYADSVKGRFTISRDNAKNTLYLQMNSLRAEDTAVYYCAREGIVATITLDYWGQGTLVTVSS
VL: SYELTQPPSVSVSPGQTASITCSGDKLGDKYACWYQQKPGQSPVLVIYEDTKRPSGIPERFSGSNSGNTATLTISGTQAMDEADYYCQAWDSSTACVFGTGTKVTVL
B5: antibody 320 (antibody, V domains shown)
VH: QVQLVQSGAEVKKPGASVKVSCKASGYTFTSYGISWVRQAPGQGLEWMGWISAYNGNTNYAQKLQGRVTMTTDTSTRTAYMELRSLRSDDTAVYYCARVGCYYDSSGYSCAENFQHWGQGTLVTVSS
VL: QSVLTQPPSVSGAPGQRVTISCTGSSSNIGAGYDVHWYQQLPGTAPKLLIYGNSNRPSGVPDRFSGSKSGTSASLAITGLQAEDEADYYCQSYDSSLSALFGGGTKLTVL
B6: antibody 345 (antibody, V domains shown)
VH: QVQLQESGPGLVKPSQTLSLTCTVSGGSISSGDYYWSWIRQPPGKGLEWIGYIYYSGSTYYNPSLKSRVTISVDTSKNQFSLKLSSVTAADTAVYYCARVGMVDNWNFEGNWFDPWGQGTLVTVSS
VL: QSALTQPRSVSGSPGQSVTISCTGTSSDVGGYNYVSWYQQHPGKAPKLMIYDVSKRPSGVPDRFSGSKSGNTASLTISGLQAEDEADYYCCSYAGSVVFGGGTKLTVL
B7: antibody 349 (antibody, V domains shown)
VH: EVQLVQSGAEVKKPGATVKISCKVSGYTFTDYYMHWVQQAPGKGLEWMGLVDPEDGETIYAEKFQGRVTITADTSTDTAYMELSSLRSEDTAVYYCATENKVPTIIAAAGTRDYYYYGMDVWGQGTTVTVSS
VL: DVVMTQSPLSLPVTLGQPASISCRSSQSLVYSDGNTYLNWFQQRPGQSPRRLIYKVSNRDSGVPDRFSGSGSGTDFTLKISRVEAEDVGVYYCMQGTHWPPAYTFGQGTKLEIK
B8: antibody 340 (antibody, V domains shown)
VH: QVQLVQSGAEVKKPGASVKVSCKASGYTFTSYDINWVRQATGQGLEWMGWMNPNSGNTGYAQKFQGRVTMTRNTSISTAYMELSSLRSEDTAVYYCARGRYCTGGVCWGDWYFDLWGRGTLVTVSS
VL: QSVLTQPPSVSGAPGQRVTISCTGSSSNIGAGYDVHWYQQLPGTAPKFLIYGNSNRPSGVPDRFSGSKSGTSASLAITGLQAEDEADYYCQSYDSSLSGPVFGGGTKLTVL
B9: antibody 332 (antibody, V domains shown)
VH: QVTLRESGPALVKPTQTLTLTCTFSGFSLSTSGMCVSWIRQPPGKALEWLALIDWDDDKYYSTSLKTRLTISKDTSKNQVVLTMTNMDPVDTATYYCARIHDDILTGYHYVDYWGQGTLVTVSS
VL: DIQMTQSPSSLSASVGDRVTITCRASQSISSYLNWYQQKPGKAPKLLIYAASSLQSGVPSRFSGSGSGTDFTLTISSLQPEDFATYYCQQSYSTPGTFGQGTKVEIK
B10: antibody 348 (antibody, V domains shown)
VH: QVQLVQSGSELKKPGASVKVSCKASGYTFTSYAMNWVRQAPGQGLEWMGWINTNTGNPTYAQGFTGRFVFSLDTSVSTAYLQISSLKAEDTAVYYCARDHELPNTSSWFGHFEYWGQGTLVTVSS
VL: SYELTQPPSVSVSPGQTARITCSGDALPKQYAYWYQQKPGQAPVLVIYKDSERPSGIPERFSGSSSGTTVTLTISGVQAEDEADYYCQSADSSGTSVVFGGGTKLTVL
B11: antibody 324 (antibody, V domains shown)
VH: QVQLQESGPGLVKPSGTLSLTCAVSGGSISSSNWWSWVRQPPGKGLEWIGEIYHSGSTNYNPSLKSRVTISVDNSKNQFSLKLSSVTAADTAVYYCARESVAAAGISYYYYGMDVWGQGTTVTVSS
VL: EIVLTQSPGTLSLSPGERATLSCRASQSVSGRYLAWYQQKPGQAPRLLIYGASSRATGIPDRFSGSGSGTDFTLTISRLEPEDFAVYYCQHYGSSPGTFGQGTRLEIK
B12: antibody 328 (antibody, V domains shown)
VH: B11 VH
VL: DIQMTQSPSSLSASVGDRVTITCRASQGIRNDLGWYQQKPGKAPKRLIYAASSLQSGVPSRFSGSGSGTEFTLTVSGLQPEDFATYYCLQYNSSPLTFGGGTKVEIK
B13: antibody 337 (antibody, V domains shown)
VH: QVQLVESGGGVVQPGRSLRLSCAASGFTFSSYGMHWVRQAPGKGLEWVAIIWYDGSNKYYADSVKGRFTISRDNSKNTLYLQMNSLRAEDTAVYYCAKDTGGYCSGGSCYPESYFDYWGQGTLVTVSS
VL: SYVLTQPPSVSVAPGKTARITCGGNNIGSKSVHWYQQKPGQAPVLVIYYDSDRPSGIPERFSGSNSGNTATLTINRVEAGDEADYYCQVWDGSSDHLYVFGTGTKVTVL
B14: antibody 333 (antibody, V domains shown)
VH: QVHLVESGGGVVLPGRSLRLSCSASQFIFSNYDMHWVRQSPGMGLEWVAGISSDGSDKYYIDSVRGRFTISRDNAKNTLFLQMNSLTTEDTAVYSCAKGGGKFGQYWGRGTLVTVSS
VL: AIQMTQSPSSLSASVGDRVTITCRASQVIRNDLAWFQQKPGEAPNLLVYSASNLQSGVPSRFSGSGSGTDFTLTISSLQPEDFATYYCLQDYSYPYTFGQGTKLDMK
B15: antibody 351 (antibody, V domains shown)
VH: HVQLVESGGGVVQPGRSLRLSCAASGFISRNYGMEWVRQAPGQGLEWVAGIWYDGSKKYYADSVKGRFTISRDTSKNTLFLQMDSLRAEDTAVFYCATATKTFCGGDCPPGGMDVWGQGTTVTVST
VL: SYVLTQPPSVSVAPGKTAWITCVGNNIESESVHWYQQRPGQAPVLVIYYDSDRPSGIPERFFGSNSGNTATLTISRVEAGDEADYYCQVWDSNSDLMVFGGGTKLTVL
B16: antibody 366 (antibody, V domains shown)
VH: QVQLVESGGGVVQPGRSLRLSCAASGFTFSSYAMHWVRQAPGKGLEWVAVISYDGSNKYYADSVKGRFTISRDNSKNTLYLQMNSLRAEDTAVYYCARGLVGYNWFDPWGQGTLVTVSS
VL: DIQMTQSPSSVSASVGDRVTITCRASQGISSWLAWYQQKPGKAPKLLIYAASSLQSGVPSRFSGSGSGTDFTLTISSLQPEDFATYYCQQANSFTFGPGTKVDIK
B17: antibody 342 (antibody, V domains shown)
VH: EVQLVQSGAEVKKPGATVKISCKVSGYTFTDYYMHWVQQAPGKGLEWMGLVDPEDGETIYAEKFQGRVTITADTSTDTAYMELSSLRSEDTAVYYCATGGVSVWFREFPASYSGSYLGYWGQGTLVTVSS
VL: not shown
B18: antibody 323 (antibody, V domains shown)
VH: QVQLVQSGAEVKKPGASVKVSCKVSGYTLTELSMHWVRQAPGKGLEWMGGFDPEDGETIYAQKFQGRVTMTEDTSTDTAYMELSSLRSEDTAVYYCATSTIFAPGGWFDPWGQGTLVTVSS
VL: QSALTQPASVSGSPGQSITISCTGTSSDVGSYNLVSWYQQHPGKAPKLMIYEVSKRPSGVSNRFSGSKSGNTASLTISGLQAEDEADYYCCSYAGSTHYVFGTGTKVTVL
B19: antibody 343 (antibody, V domains shown)
VH: QVQLVESGGDVVQPGTSLRLSCAASGFTFNNYGFHWVRQAPGKGLEWVALISSDGASTHYADSVKGRFTISRDSSVNTLYLQMNSLSLEDTAVYYCATGHCGTTCYYFDYWGQGTLVSVSS
VL: DIQVTQSPSYLSASVGDRVTITCRASQTISTFLQWYQQKVGKAPKLLIYAASTLQSGVPSRFSGSGSGTDFSLTISSLQPEDFATYYCQQSYSAPLSFGGGTKVEIK
B20: antibody 585 (antibody, V domains shown)
VH: QVQLVESGGGVVQPGRSLRLSCAASGFTFATYAMHWVRQAPGKGLEWVALISHDGSNKHYADSVKGRFTISRDNSKKTLYLQMNSLRAEGTAIYYCARESLEAAAPPFDYWGQGTLVTVSS
VL: SYELTQPPSVSVSPGQTATIICSGDKLGEKYASWYQQKPGQSPALVIYQDRKRPSGIPERFSGSNSGNTATLTISGTQAMDEADYYCQAWDSSNSVVFGGGTKLTVP
B21: antibody 558 (antibody, V domains shown)
VH: QVQLVESGGGVVQPGRSLRLSCAASGFTFSSYAMHWVRQAPGKGLEWVAVISYDGSNKYYADSVKGRFTISRDNSKNTLYLQMNSLRAEDTAVYYCARGQGGGYYYGMDVWGQGTTVTVSS
VL: QSALTQPASVSGSPGQSITISCTGTSSDVGGYNYVSWYQQHPGKAPKLMIYDVSNRPSGVSNRFSGSKSGNTASLTISGLQAEDEADYYCSSYTSSSTLYVFGTGTKVTVL
B22: antibody 562 (antibody, V domains shown)
VH: B21 VH with G99A, Q100S, G101S, Y105Q, Y106G, G107P, M108F, V110P, T116L
VL: QSALTQPASVSGSPGQSITISCTGTSSDVGGYNYVSWYQQHPGKAPKLMIYDVSNRPSGVSNRFSGSKSGNTASLTISGLQAEDEADYYCSSYTSSSTLLYVFGTGTKVTVLG
B23: antibody 559 (antibody, V domains shown)
VH: QVQLQESGPGLVKLSETLSLTCTVSGYSISSGYYWGWIRQPPGKGLEWIGSIYHSGSTYYNPSLKSRVTISVDTSKNQFSLKLSSVTAADTAVYYCAREETLGSSWYESYIDYWGQGTLVTVSS
VL: B13 VL with N75S, G92S, L97P, Y98R, T102G, V106L

biological target: SARS-CoV spike protein (SARS-CoV, UniProt P59594 14-1190); test: not given

| Binder | median fluorescence intensity, fold over isotype control [fold over isotype] |
| --- | --- |
| B1 | 1.09 |
| B2 | 1.34 |
| B3 | 1.27 |
| B4 | 2.46 |
| B5 | 989 |
| B6 | 1.09 |
| B7 | 1.12 |
| B8 | 1.26 |
| B9 | 0.99 |
| B10 | 1.16 |
| B11 | 1.14 |
| B12 | 1.22 |
| B13 | 439 |
| B14 | 1.21 |
| B15 | 1.08 |
| B16 | 1.23 |
| B17 | 1.16 |
| B18 | 1.29 |
| B19 | 1.19 |

biological target: T1, SARS-CoV-2 spike protein (SARS-CoV-2, UniProt P0DTC2 14-1208); test: HT-SPR, Carterra LSA; mAb coupled to chip, antigen injected; 1:1 fit
T1 construct: also called SARS-CoV-2 S protein; antigen of interest

| Binder | Kd [pM] | koff [s⁻¹] | kon [M⁻¹ s⁻¹] |
| --- | --- | --- | --- |
| B20 | 248 | 4.59e-05 | 185000 |
| B21 | 237 | 8.94e-05 | 378000 |
| B22 | 21.1 | 1.16e-05 | 548000 |
| B23 | 32200 | 0.000631 | 19600 |
